The chains are these.
B1: His-Halo-tagged cGAS single point mutant of Glu515 (natural protein)
chain: MQPWHGKAMQRASEAGATAPKASARNARGAPMDPTESPAAPEAALPKAGKFGPARKSGSRQKKSAPDTQERPPVRATGARAKKAPQRAQDTQPSDATSAPGAEGLEPPAAREPALSRAGSCRQRGARCSTKPRPPPGPWDVPSPGLPVSAPILVRRDAAPGASKLRAVLEKLKLSRDDISTAAGMVKGVVDHLLLRLKCDSAFRGVGLLNTGSYYEHVKISAPNEFDVMFKLEVPRIQLEEYSNTRAYYFVKFKRNPKENPLSQFLEGEILSASKMLSKFRKIIKEEINDIKDTDVIMKRKRGGSPAVTLLISEKISVDITLALESKSSWPASTQEGLRIQNWLSAKVRKQLRLKPFYLVPKHAKEGNGFQEETWRLSFSHIEKEILNNHGKSKTCCENKEEKCCRKDCLKLMKYLLEQLKERFKDKKHLDKFSSYHVKTAFFHVCTQNPQDSQWDRKDLGLCFDNCVTYFLQCLRTEKLENYFIPEFNLFSSNLIDKRSKEFLTKQIEYERNNAFPVFDEF
B2: His-Halo-tagged cGAS single point mutant of Arg512 (natural protein)
chain: B1 chain with R512A, A515E
B3: His-Halo-tagged cGAS single point mutant of Asp465 (natural protein)
chain: B1 chain with D465A, A515E

Changes are numbered by the printed parent chain.

This experiment deals with SPSB3–ELOBC heterotrimeric complex (SPSB3 amino acids 83–326 with elongin B and elongin C) (human | , UniProt Q6PJ21 83-326; Q15370 1-118; Q15369 1-112). In words: BLI.
Usually Kd stands for the constant that tells how readily two partners part at equilibrium. In turn, B1 displayed a dissociation constant Kd of 453 nM.

For B2, the Kd turned out to be 957 nM. Compared with the last molecule, the Kd is about 2.1-fold higher.

B3: the Kd amounted to 818 nM.

For the origin of these results see publication PMC10972748 (2024).
